Values quoted from earlier work in publication PMC2688729.

Target: thrombomodulin (Homo sapiens) (UniProt P07204)

In the case of thrombin (from UniProt P00734), the Kd is given as < 1 nM.
